Results: patent US20180312877A1, “METHOD FOR ISOMERIZING DOUBLE BONDS” (Research Foundation of the City University of New York, priority 2015, published 2018)

Assay: Z-ISO in vitro enzyme assay with substrate-containing liposomes
Assay type: biochemical, Zea mays
Protocol: Z-ISO in vitro enzyme assay. Preparation of substrate-containing liposomes. To produce the substrate, 9,15,9′-tri-cis-ζ-carotene (tri) from E. coli BL21(DE3) cultures, 400 ml of Luria-Bertani medium (I % tryptone, 0.5% yeast extract and 1% NaCl) containing chloramphenicol (34 μg per ml (Sigma-Aldrich)) was inoculated with 8 ml of overnight culture containing pACCRT-EBP (no. 150). Cultures were grown in the dark at 37° C., with shaking at 160 r.p.m. for 8 h before induction with 10 mM IPTG. Cultures were further incubated at 28° C., with shaking at 100 r.p.m. for 40 h and for an additional 2 d without shaking. Cells were centrifuged at 2,600 g, and pellets were resuspended in a total of 40 ml of methanol, distributed in four conical tubes with equal volumes of extract and then sonicated twice on ice (30 s each, at 60% power) with a Vibra Cell VC600 sonicator equipped with a tapered 3-mm microtip (Sonics & Materials). Extracts were centrifuged at 2,600 g for 10 min, and supernatants were transferred to 15-ml conical tubes and evaporated under nitrogen gas in the dark. Dried samples were resolubilized in 300 μl of methanol, transferred to 1.5-ml microfuge tubes, frozen at −80° C. for 1 h and centrifuged at 16,000 g at 4° C. Extractions were then combined, and 1 ml was used to prepare liposomes. Cells also accumulate […] (di), and therefore enzymatic conversion is measured as the ratio of di to tri isomers. For preparation of liposomes, 1 ml of substrate extract (58 μM, estimated by spectroscopy, with the molar extinction coefficient for ζ-carotene, ε400, equal to 138,000) was mixed with 35 μl of soybean L-α-phosphatidylcholine (Sigma-Aldrich, 99% pure) (20 mg per ml in methanol). The mixture was dried under N2, and this was followed by addition of 800 μl sonication buffer (25 mM HEPES, pH 7.8, 100 mM NaCl and 10% glycerol) and sonication on ice with a Vibra Cell VC600 sonicator equipped with a 3-mm tapered microtip (Sonics & Materials) for 1 min, at intervals of 10 s at 20% power.
In vitro reactions. […]

B1: Z-ISO: 15-cis-ζ-carotene isomerase from Zea mays (SEQ ID NO: 12), heme b enzyme, purified as TEV-cleavable MBP fusion (protein)
chain: MASQLRLHLAATPPLLPHRRPHLPRPLCPTLNPIRAPLPPLSRVLSHARPARAVGGGIEPKEGVVAEGDESGGGPVLVGEDSAAFELKDQSVASWAYFAGILGAVLVALNVLWIDPSTGVGTKFLDAVASVSDSHEVVMLLLTIIFAVVHSGMASLRESGEKIVGERVYRVLFAGISLPLAVTTIVYFINHRYDGTQLWQVQGITGIHELLWFSSFISFFFLYPSTFNLLEVAAVDKPKLHMWETGIMRITRHPQMVGQVIWCLAHTLWIGNSVAVAASVGLISHHLFGAWNGDRRLLSRYGEAFEVLKKRTSVMPFAAIIDGRQKLPKDYHKEFFRLPYVAITMLTLGAYFAHPLMQASSYQLPW
modifications: MBP fusion, TEV-cleavable; Zea mays
Question: With B1 as the molecule, how does the “conversion of substrate to product” value (Z-ISO pretreated with dithionite, 10 mM final (reducing conditions)) read?
Answer: Conversion of the substrate to product occurred

Question: And the “conversion of substrate to product” value (as-purified enzyme (considered to be oxidized))?
Answer: not functional

Question: And the “conversion of substrate to product” value (heat-denatured Z-ISO)?
Answer: not functional
